Laboratory results published in publication PMC11623273, “Epitope-focused immunogens targeting the hepatitis C virus glycoproteins induce broadly neutralizing antibodies” (Science Advances, 2024).

Key:
[1] = biological target: T1, E1_S1 (design 1W4K_08), epitope scaffold presenting the HCV E1 epitope (residues 314-324) (designed scaffold from Pyrobaculum …)
T1 chain: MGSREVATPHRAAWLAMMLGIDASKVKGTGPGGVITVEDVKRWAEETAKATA

[2] = biological target: T1, E1_S1 (design 1W4K_08), epitope …; assay: grating-coupled interferometry (GCI, Creoptix WAVE); conditions: both partners purified
[3] = biological target: T2, E2_S2_1 (design 2K6Z_01), epitope scaffold presenting HCV E2 epitope I; conditions: both partners purified
T2 chain: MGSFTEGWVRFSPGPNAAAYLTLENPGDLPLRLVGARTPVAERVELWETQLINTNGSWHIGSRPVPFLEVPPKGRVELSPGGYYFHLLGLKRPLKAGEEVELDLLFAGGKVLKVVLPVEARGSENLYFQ

[4] = biological target: E2_S3_3 (design 4CIL_03), epitope scaffold presenting HCV E2 epitope I; conditions: both partners purified

B1: N15 (antibody, V domains shown)
VH: QVQLVESGGGVVQPGRSLRLSCAASGFTFSSYVMHWVRQAPGKGLEWVAVISYDGSNKYYADSVKGRFTISRDNSKNTLYLQMNSLRAEDTAVYYCARAPLYDILSDYWGQGTLVTVSS
VL: QLVLTQSPSASASLGASVKLTCTLSSGHSSYAIAWHQQQPEKGPRYLMKLNSDGSHSKGDGIPDRFSGSSSGAERYLTISSLQSEDEADYYCQTWGTGIVVFGGGTKLTVL
B1: binds [1].

B2: Fab fragment of neutralizing antibody IGH526 (Fab, V domains shown)
VH: VQLLEQSGAEVKRPGASVKVSCKASGYTFTSYAIHWVRQAPGQRLEWMGWINPGNGNAKYSQRFQGRVIISRDTSATTSYMELSSLTSEDTAVYSCARDRGFDLLTGHYLGLDPWGQGTLVTVSS
VL: ELTLTQPASASATPGQRVTISCSGSSSNIGGNTVNWYQHLPGAAPKLLIHNNDLRPSGVPDRFSGSKSGTSASLAVSGLQSEDEADYFCAAWDDGLNGWVFGGGTKLTVL
B2 showed a Kd [2] of 1.4 nM, a koff [2] of 0.00181 s⁻¹ and a kon [2] of 1.32e+06 M⁻¹ s⁻¹.

B3: Fab fragment of neutralizing antibody HCV1 (Fab, V domains shown)
VH: EVQLLESGGGVVQPGRSLRLSCTASGFTFNNYGMHWVRQTPGKGLEWLAVIWFDENNKYYADSVRGRFTISRDNSKNTLFLQMNSLKTEDTAMYYCARDISLVRDAFIYFDFWGLGTLVTVSS
VL: ELTLTQSPATLSLSPGERATLSCRASQSVSSYLAWYQQKPGQAPRLLIYDASNRATGIPARFSGSGSGTDFTLTISSLEPEDFAVYYCQQRSNWITFGQGTRLEIK
notes: also called Fab HCV1; F(ab) HCV1
Binder B3 has a Kd [3] of 23 nM, a koff [3] of 0.00121 s⁻¹ and a kon [3] of 52700 M⁻¹ s⁻¹. The Kd [4] was 2.8 nM, the koff [4] was 0.000369 s⁻¹ and the kon [4] was 133000 M⁻¹ s⁻¹.
